To fix the notation:
B1: Tyrosine-protein kinase JAK2 (Mus musculus), Q62120 (parent)
chain: MGMACLTMTEMEATSTSPVHQNGDIPGSANSVKQIEPVLQVYLYHSLGQAEGEYLKFPSGEYVAEEICVAASKACGITPVYHNMFALMSETERIWYPPNHVFHIDESTRHDILYRIRFYFPHWYCSGSSRTYRYGVSRGAEAPLLDDFVMSYLFAQWRHDFVHGWIKVPVTHETQEECLGMAVLDMMRIAKEKDQTPLAVYNSVSYKTFLPKCVRAKIQDYHILTRKRIRYRFRRFIQQFSQCKATARNLKLKYLINLETLQSAFYTEQFEVKESARGPSGEEIFATIIITGNGGIQWSRGKHKESETLTEQDVQLYCDFPDIIDVSIKQANQECSNESRIVTVHKQDGKVLEIELSSLKEALSFVSLIDGYYRLTADAHHYLCKEVAPPAVLENIHSNCHGPISMDFAISKLKKAGNQTGLYVLRCSPKDFNKYFLTFAVERENVIEYKHCLITKNENGEYNLSGTKRNFSNLKDLLNCYQMETVRSDSIIFQFTKCCPPKPKDKSNLLVFRTNGISDVQISPTLQRHNNVNQMVFHKIRNEDLIFNESLGQGTFTKIFKGVRREVGDYGQLHKTEVLLKVLDKAHRNYSESFFEAASMMSQLSHKHLVLNYGVCVCGEENILVQEFVKFGSLDTYLKKNKNSINILWKLGVAKQLAWAMHFLEEKSLIHGNVCAKNILLIREEDRRTGNPPFIKLSDPGISITVLPKDILQERIPWVPPECIENPKNLNLATDKWSFGTTLWEICSGGDKPLSALDSQRKLQFYEDKHQLPAPKWTELANLINNCMDYEPDFRPAFRAVIRDLNSLFTPDYELLTENDMLPNMRIGALGFSGAFEDRDPTQFEERHLKFLQQLGKGNFGSVEMCRYDPLQDNTGEVVAVKKLQHSTEEHLRDFEREIEILKSLQHDNIVKYKGVCYSAGRRNLRLIMEYLPYGSLRDYLQKHKERIDHKKLLQYTSQICKGMEYLGTKRYIHRDLATRNILVENENRVKIGDFGLTKVLPQDKEYYKVKEPGESPIFWYAPESLTESKFSVASDVWSFGVVLYELFTYIEKSKSPPVEFMRMIGNDKQGQMIVFHLIELLKSNGRLPRPEGCPDEIYVIMTECWNNNVSQRPSFRDLSLRVDQIRDSIAA
partner: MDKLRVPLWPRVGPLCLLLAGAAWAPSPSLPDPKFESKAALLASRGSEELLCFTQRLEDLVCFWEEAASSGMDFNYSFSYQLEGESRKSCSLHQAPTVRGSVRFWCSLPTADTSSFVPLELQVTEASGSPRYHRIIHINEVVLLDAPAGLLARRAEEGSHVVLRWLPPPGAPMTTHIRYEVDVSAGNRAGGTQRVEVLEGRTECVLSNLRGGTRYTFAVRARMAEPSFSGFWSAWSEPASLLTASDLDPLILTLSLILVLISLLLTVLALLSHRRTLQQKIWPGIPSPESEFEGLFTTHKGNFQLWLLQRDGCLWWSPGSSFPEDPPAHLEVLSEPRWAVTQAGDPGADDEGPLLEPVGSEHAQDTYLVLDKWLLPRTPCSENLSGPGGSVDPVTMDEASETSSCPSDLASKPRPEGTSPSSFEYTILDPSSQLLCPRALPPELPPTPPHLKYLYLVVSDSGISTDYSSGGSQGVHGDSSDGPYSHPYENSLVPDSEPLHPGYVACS
B2: Tyrosine-protein kinase JAK2 (Mus musculus), Q62120 (parent)
chain: B1 chain
partner: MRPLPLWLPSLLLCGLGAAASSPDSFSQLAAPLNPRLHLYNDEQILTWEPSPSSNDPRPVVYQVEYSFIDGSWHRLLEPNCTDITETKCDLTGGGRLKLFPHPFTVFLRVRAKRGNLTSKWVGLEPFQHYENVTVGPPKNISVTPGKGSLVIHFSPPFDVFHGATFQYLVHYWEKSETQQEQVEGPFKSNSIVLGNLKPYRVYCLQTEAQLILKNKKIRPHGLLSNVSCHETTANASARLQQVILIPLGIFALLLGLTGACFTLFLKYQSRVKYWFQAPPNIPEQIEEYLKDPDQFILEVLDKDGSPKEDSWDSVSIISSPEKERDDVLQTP

Variants of B1 are the subject of one test. As to conditions: with epor_mouse Epor.
Take Y119E: the “effect of a mutation on the interaction” value is “disrupting interaction”. On the same count and under the same terms, in the case of Y1007F it was “decreasing interaction”.

The next test covers variants of B2. The note with it: with Ifngr2, Q63953.
For Y1007F, the “effect of a mutation on the interaction” value is “decreasing interaction”. As for Y119E, the “effect of a mutation on the interaction” value is “decreasing interaction”.

The values above are taken from IntAct's records for PubMed 17024180.
